In PMC7170509, “Substrate recognition and ATPase activity of the E. coli cysteine/cystine ABC transporter YecSC-FliY” (The Journal of Biological Chemistry, 2020):
Each block holds one molecule with its values, some of them ahead of it.

Tests used:
[1] = target: T1, FliY (Escherichia coli, UniProt P0AEM9); experiment: isothermal titration calorimetry; assay type: binding
T1 construct: gene tcyJ; C-terminal His6 tag (pET21b); expressed in E. coli BL21-Gold(DE3), purified from osmotic shock extract; monomer

[2] = target: T1, FliY; experiment: nanoDSF thermal shift; assay type: binding; conditions: 30 μM FliY, 200 μM ligand; 50 mM Tris-HCl pH 7.5, 250 mM NaCl
[3] = target: T2, YecSC, the E. coli cysteine/cystine ABC transporter (YecS transmembrane domain and YecC nucleotide-binding … (E. coli, UniProt P0AFT2 1-222; P37774 1-250); experiment: cell-based or functional assay
T2 sequence (looked up) 1: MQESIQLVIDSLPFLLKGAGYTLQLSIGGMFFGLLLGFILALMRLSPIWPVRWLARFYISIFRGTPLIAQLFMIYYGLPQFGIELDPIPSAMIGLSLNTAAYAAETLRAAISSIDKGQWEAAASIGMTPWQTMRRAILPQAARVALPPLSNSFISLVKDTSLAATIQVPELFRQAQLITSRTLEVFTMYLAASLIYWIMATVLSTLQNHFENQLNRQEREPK
T2 sequence (looked up) 2: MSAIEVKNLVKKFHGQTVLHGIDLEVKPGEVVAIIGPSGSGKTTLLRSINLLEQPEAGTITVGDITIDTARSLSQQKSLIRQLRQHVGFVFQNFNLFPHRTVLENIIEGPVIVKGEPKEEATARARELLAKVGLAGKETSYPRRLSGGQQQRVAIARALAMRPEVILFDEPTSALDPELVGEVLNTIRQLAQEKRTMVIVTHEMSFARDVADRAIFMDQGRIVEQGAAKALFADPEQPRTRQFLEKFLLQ

Kd [1]: 10 ± 3.4 µM
Molecule: N[C@H](CS)C(=O)O [D-cysteine]

Kd [1]: 14.4 ± 2.4 µM
Molecule: N[C@@H](CS)C(=O)O [L-cysteine]

Kd [1]: 9.3 ± 2.8 µM
Molecule: N[C@@H](CSSC[C@H](N)C(=O)O)C(=O)O [L-cystine]
dTm [2]: the L-enantiomer of its oxidized dimeric form (Cys-S-S-Cys, cystine) also led to thermostabilization of FliY

apparent Km for FliY of the stimulation of ATP hydrolysis by 1 μM YecSC (0.25–20 μM FliY), in the absence of substrate (apo FliY) [3]: 10.3 µM
apparent Km for FliY of the stimulation of ATP hydrolysis by 1 μM YecSC (0.25–20 μM FliY), in the presence of 100 μM L-cystine (holo FliY) [3]: 1.1 µM
interaction ratio from the Michaelis–Menten fit of initial ATPase rates of YecSC against FliY concentration, without and with L-cystine [3]: 1 FliY:YecSC
stimulation of the ATPase activity of YecSC by FliY with L-cystine, over basal activity [3]: ~11 fold
stimulation of the ATPase activity of YecSC by substrate-free apo FliY, over basal activity [3]: ~3 fold
B1: FliY, the substrate-binding protein (SBP) of the E. coli YecSC-FliY cysteine/cystine ABC import system (natural protein, UniProt P0AEM9 30-266, looked up)
chain: DEGLLNKVKERGTLLVGLEGTYPPFSFQGDDGKLTGFEVEFAQQLAKHLGVEASLKPTKWDGMLASLDSKRIDVVINQVTISDERKKKYDFSTPYTISGIQALVKKGNEGTIKTADDLKGKKVGVGLGTNYEEWLRQNVQGVDVRTYDDDPTKYQDLRVGRIDAILVDRLAALDLVKKTNDTLAVTGEAFSRQESGVALRKGNEDLLKAVNDAIAEMQKDGTLQALSEKWFGADVTK
